Experimental findings from patent US20230174616A1 are described below.

*1 amine or outer side, *2 acyl side, *3 side chain or, on linkers, in order; H or OH if unused. Where no end group is shown, it is not given here. [ ]: non-standard residue; d: D form. Met(35S) = [35S]-methionine label, C[35S]CC[C@H](N[*:1])C(=O)[*:2]

The target of this test is biotinylated hPD-L1 (extracellular domain of human PD-L1, Ala18 to Thr239, expressed in E. coli, non-glycosylated) (human). Kind of test: [35S]-labeled truncated variant on immobilized hPD-L1, normalized to [35S]-SPAM.

With [Met(35S)]DHILNKFWILHYAGSGSSGHHHHHHSS [Trunc 4 (SPAM with P2, I3, F4 and L5 deleted)], the binding as compared with full-length SPAM was less than 25%.

Molecule [Met(35S)]LDHILNKFWILHYAGSGSSGHHHHHHSS [Trunc 3 (SPAM with P2, I3 and F4 deleted)] had a binding as compared with full-length SPAM of less than 25%.
